{
  "source": "paper doi:10.1101/2025.08.06.668955",
  "about": "“High-Affinity, Structure-Validated and Selective Macrocyclic Peptide Tools for Chemical Biology Studies of Huntingtin” (bioRxiv, 2025)",
  "molecules": {"B1": {"name": "FITC-labeled HD4 (peptide)", "peptide": "ClAc-[dY]DIWCETNKQTGILVLC-{FITC″}", "modifications": "thioether (positions not given here); also: thioether to downstream Cys, which of Cys5/Cys17 not given here"}, "B2": {"name": "HD4 (peptide)", "peptide": "ClAc-[dY]DIWCETNKQTGILVLC", "modifications": "thioether (positions not given here); also: thioether to downstream Cys, which of Cys5/Cys17 not given here"}, "B3": {"name": "HHL1 (peptide)", "peptide": "{CH2CO}-YLIRSSFNWFVFVEVPC", "modifications": "thioether N-17 (inferred)", "notes": "macrocyclic peptide selected by RaPID on HTT-HAP40; also called macrocycle HHL1; source: synthetic peptide (Fmoc SPPS, RP-HPLC), without tags"}, "B4": {"name": "HHD3 (peptide)", "peptide": "{CH2CO}-[dY]TRHWQNNWWILYHEFC", "modifications": "thioether N-17 (inferred)", "notes": "macrocyclic peptide selected by RaPID on HTT-HAP40; printed with a superscript D before the first Y (D-tyrosine); also called macrocycle HHD3; source: synthetic peptide (Fmoc SPPS, RP-HPLC), without tags"}},
  "key": {"HTT-HAP40 or HTT (HL5)": {"system": "HTT-HAP40 or HTT (HL5)", "assay": "FP displacement assay, FITC-labeled and unlabeled macrocycle pairs", "type": "binding", "settings": "FITC-labeled HHL1 on HTT-HAP40; biological singlet in technical triplicate", "text": "We further verified the specificity of binding of the macrocycles for HTT and HTT-HAP40 by displacement assay (Supplementary Figure 3) with FITC-labeled and unlabeled macrocycle pairs. All labelled macrocycles were displaced by their sequence-matched unlabeled macrocycle, with IC50 values in the nanomolar range.\n57 Supplementary Figure 3. Displacement of fluorescently labeled macrocycles. a, Schematic for\n58 assay. b, Each fluorescently labeled macrocycle is displaced by its unlabeled partner from HTT-\n59 HAP40 or HTT (HL5) Conducted as a biological singlet in technical triplicate. c, Fluorescently\n60 labeled HHL1 is displaced by itself and HHD3, but no other macrocycle.\n(§1) (1 picture or pasted object on this page, not shown here)"}, "HTTQ23-HAP40 [1]": {"target": "T1, HTTQ23-HAP40 (Homo sapiens, UniProt P23610+P42858, INS38QQ)", "T1 construct": "Full-length wildtype HTT with a polyQ tract of 23 glutamines; FLAG; made in house; host or cells: Sf9 insect cells (baculovirus)", "T1 sequence (P42858 with tags, fused parts or gaps INS38QQ, one chain of several)": "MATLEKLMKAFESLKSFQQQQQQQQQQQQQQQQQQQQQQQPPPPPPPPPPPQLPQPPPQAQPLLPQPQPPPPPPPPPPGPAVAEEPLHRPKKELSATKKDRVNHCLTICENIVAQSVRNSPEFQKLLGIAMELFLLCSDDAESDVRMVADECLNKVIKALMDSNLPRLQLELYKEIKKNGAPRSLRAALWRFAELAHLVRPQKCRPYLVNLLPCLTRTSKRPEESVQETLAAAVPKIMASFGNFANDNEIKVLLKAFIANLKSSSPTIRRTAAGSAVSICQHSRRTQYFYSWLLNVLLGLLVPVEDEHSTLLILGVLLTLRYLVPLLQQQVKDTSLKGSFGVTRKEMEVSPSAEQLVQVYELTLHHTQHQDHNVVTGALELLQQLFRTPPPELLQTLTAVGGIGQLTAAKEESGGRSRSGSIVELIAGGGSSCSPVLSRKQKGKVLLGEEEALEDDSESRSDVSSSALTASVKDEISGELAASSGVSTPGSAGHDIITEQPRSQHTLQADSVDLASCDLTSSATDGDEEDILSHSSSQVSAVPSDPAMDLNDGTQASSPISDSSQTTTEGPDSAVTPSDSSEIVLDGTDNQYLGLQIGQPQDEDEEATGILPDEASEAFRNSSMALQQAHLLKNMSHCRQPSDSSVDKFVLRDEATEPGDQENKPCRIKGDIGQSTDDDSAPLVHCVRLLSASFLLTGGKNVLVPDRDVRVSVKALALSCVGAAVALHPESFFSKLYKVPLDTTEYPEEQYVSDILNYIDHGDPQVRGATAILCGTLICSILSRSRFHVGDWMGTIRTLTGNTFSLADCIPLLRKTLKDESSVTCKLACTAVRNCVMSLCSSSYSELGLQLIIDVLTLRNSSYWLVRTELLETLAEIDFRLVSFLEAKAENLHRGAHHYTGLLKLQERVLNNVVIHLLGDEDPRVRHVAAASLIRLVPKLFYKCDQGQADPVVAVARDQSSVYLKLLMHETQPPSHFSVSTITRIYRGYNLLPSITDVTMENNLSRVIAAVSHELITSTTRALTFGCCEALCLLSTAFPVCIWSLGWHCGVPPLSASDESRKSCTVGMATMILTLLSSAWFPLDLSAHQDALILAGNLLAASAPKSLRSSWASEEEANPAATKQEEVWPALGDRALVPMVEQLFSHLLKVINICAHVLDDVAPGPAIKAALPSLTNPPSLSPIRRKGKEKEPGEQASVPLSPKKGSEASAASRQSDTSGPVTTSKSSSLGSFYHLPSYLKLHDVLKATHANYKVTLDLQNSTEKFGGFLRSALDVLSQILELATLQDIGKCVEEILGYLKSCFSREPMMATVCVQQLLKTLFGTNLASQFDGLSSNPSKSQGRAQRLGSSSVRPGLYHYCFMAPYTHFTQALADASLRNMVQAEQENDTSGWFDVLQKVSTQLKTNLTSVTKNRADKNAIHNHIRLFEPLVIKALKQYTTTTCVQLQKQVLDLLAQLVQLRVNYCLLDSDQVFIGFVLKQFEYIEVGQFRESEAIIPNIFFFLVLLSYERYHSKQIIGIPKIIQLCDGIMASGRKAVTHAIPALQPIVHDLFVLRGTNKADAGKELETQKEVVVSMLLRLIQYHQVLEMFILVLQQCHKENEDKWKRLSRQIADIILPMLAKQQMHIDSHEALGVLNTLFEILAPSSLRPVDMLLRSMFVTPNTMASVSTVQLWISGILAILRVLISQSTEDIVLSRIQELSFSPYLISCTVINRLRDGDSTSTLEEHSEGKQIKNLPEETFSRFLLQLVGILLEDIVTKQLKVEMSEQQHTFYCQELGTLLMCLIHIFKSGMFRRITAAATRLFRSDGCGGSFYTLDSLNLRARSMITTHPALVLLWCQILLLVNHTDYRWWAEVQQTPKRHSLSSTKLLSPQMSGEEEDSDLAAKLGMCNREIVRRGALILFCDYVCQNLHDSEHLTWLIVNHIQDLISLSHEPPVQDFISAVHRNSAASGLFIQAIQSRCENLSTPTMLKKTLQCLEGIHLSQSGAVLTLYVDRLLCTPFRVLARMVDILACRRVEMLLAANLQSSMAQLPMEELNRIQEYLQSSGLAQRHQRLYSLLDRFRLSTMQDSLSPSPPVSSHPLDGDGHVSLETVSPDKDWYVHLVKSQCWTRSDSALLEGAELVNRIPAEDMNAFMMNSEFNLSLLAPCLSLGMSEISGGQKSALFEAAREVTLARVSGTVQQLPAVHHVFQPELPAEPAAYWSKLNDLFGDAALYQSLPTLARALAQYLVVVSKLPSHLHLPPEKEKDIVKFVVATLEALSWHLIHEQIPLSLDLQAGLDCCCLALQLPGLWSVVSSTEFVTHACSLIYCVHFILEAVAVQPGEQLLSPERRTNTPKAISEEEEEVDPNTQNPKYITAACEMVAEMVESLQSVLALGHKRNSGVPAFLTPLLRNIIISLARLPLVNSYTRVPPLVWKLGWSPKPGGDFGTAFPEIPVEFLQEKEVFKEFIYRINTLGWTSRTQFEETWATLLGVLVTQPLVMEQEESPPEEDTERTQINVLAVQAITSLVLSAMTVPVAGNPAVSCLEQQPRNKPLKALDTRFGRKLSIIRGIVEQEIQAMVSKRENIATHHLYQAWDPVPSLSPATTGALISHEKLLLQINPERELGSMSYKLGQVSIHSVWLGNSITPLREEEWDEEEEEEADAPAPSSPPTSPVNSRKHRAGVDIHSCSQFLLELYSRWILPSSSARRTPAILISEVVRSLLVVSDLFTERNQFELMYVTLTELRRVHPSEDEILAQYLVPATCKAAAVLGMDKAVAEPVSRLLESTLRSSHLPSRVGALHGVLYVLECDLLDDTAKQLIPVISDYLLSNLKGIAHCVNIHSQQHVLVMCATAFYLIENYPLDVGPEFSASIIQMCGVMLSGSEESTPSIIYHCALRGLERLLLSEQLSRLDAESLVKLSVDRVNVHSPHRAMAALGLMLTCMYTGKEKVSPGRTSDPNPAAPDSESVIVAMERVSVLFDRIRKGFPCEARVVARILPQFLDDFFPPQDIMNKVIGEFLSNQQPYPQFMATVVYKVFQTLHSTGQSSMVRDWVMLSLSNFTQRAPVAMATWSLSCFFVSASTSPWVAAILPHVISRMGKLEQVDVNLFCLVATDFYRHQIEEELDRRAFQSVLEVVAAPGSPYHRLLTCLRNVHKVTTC", "assay": "Thermal shift assay (DSF), HTTQ23-HAP40", "type": "binding", "settings": "SYPRO Orange, 0.25 mg/mL protein, macrocycle up to 10 μM, 2.5% DMSO, n=3", "protocol": "In an Axygen® 384-well PCR microplate (REF# PCR-384-LC480-W-NF, Corning), samples were mixed to yield a final concentration of 0.25 mg/mL Q54 or Q23/HAP40, a 5-pt 2-fold serial dilution of each macrocycle (top concentration of 10 μM, 2.5% DMSO), and 5X SYPRO™ Orange (CAT# S6650, Thermo Fisher Scientific) in buffer (20 mM HEPES pH 7.4, 150 mM NaCl, 1 mM TCEP, 0.005% Tween-20). Differential Scanning Fluorimetry (DSF) was performed using a LightCycler® 480 (Roche LifeSciences) set to a 4 °C/min temperature ramp (20–95 °C) and fluorescence detection at 580 nm. Melting temperatures (Tm) were obtained from the minima of the negative derivative of each curve. The propagated error of the thermal shift (ΔTm) was calculated from the standard deviation of each Tm mean (n=3). To ensure a maximally macrocycle-bound fraction (KD ~10 nM; ~100% bound) at 0.25 mg/mL HTT or HTT-HAP40 (~0.7 μM), the upper limit of macrocycle tested was 10 μM.\n98 Supplementary Figure. 10. Thermal shift (ΔTm) induced by macrocycle binding. Melting\n99 temperature of HTTQ54 (left) with HL5 or HL2 minus HTTQ54 with DMSO (46.5 °C), and (right)\n100 HTTQ23-HAP40 with HD4, HL2, HL5, HHD2, HHD3, or HHL1 minus HTTQ23-HAP40 with DMSO\n101 (51.0 °C). ΔTm significance was determined using an unpaired t-test with Welch correction,\n102 comparing to the mean Tm of Q54 or Q23-HAP40 with DMSO; *P < 0.05, **P < 0.01, ***P <\n103 0.001. The summary table reports the ΔTm and exact P value at the highest concentration tested\nas §1"}, "HAP40": {"system": "HAP40", "assay": "Macrocycle precipitation (MP), co-purification of HAP40, LC-MS/MS", "type": "binding, human", "settings": "HEK293T lysate versus HTT CRISPR knockout line", "text": "To assess macrocycle selectivity and identify potential HTT interacting proteins, we performed LC-MS/MS analysis of the proteins in the MP eluates. To control for non-specific binding, we performed MPs using lysates from a HTT CRISPR knockout cell line ([Jung et al., 2021]). Across all macrocycles, HTT emerged as the most enriched protein after background subtraction (Figure 5b). Given we performed affinity purification using macrocycles targeting distinct HTT surfaces, we hypothesized that any real HTT protein binder might be co-purified with two or more macrocycles. […] In contrast, HAP40 was not enriched by HL5, consistent with its specificity for apo HTT.\nMacrocycles were pre-conjugated to streptavidin beads (Cytiva, 17-5113-01) by incubating with a 30 μL slurry of beads per macrocycle purification (MP) in Lysis Buffer (10 mM Tris-HCl, pH 7.9, 150 mM NaCl, 0.1% NP-40, 1:500 protease inhibitor cocktail (Sigma-Aldrich), 1:1,000 benzonase nuclease, and 2 mM MgCl2) for 1 hour at 4°C. A concentration of 1.25 μM macrocycle was used for conjugation. After incubation, beads were washed three times with 500 μL Lysis Buffer to remove unbound macrocycles and resuspended in 500 μL of lysate at 4 mg/mL protein concentration.\nCells were harvested by centrifugation at 1,500 rpm for 5 minutes, washed twice with PBS, and snap-frozen. Cell pellets were then resuspended in 500 μL of Lysis Buffer (as described above) and incubated on an end-over-end rotator at 4°C for 1 hour. Lysates were clarified by centrifugation at 20,000g for 15 minutes at 4°C, and the supernatant was transferred to fresh 1.5 mL Eppendorf tubes. Protein concentration was determined by BCA assay (Thermo Fisher Scientific, 23225), yielding approximately 4 mg of protein on average. Lysates were diluted to a final concentration of 4 mg/mL for use, providing […] of total protein per MP.\nMacrocycle-conjugated beads were incubated with 2 mg of lysate in Lysis Buffer for 1 hour at 4°C with rotation. After incubation, beads were collected by centrifugation at 3,000 rpm, and the flow-through was saved for analysis. Beads were then washed sequentially with 1 mL of Wash Buffer 1 (10 mM Tris-HCl, pH 7.9, 100 mM NaCl, 0.1% NP-40) and twice with Wash Buffer 2 (Wash Buffer 1 without detergent). Lastly, bound proteins were eluted from the beads with 200 μL of 0.5 M NH4OH and flash-frozen in liquid nitrogen.\nAll sample preparation, LC MS/MS data collection, and MS data searches were carried out at the SPARC BioCentre at The Hospital for Sick Children (Toronto, ON, Canada). […] Samples were analyzed by liquid chromatography tandem mass spectrometry (LC-MS/MS) using an EASY-nanoLC 1200 system with a 1 h analysis and an Orbitrap Fusion™ Lumos™ Tribrid™ Mass Spectrometer (Thermo Fisher Scientific). […]"}, "HTTQ54 (apo)": {"target": "HTTQ54 (apo)", "assay": "FP"}, "[2]": {"target": "Full-length wildtype HTT with a polyQ tract of 23 glutamines, apo form (HTTQ23)", "sequence (P42858 other isoform, or with tags, fused parts or gaps)": "as the sequence (P42858 with tags, fused parts or gaps INS38QQ, one chain of several) above, with Y2311H, V2788I counted along it", "assay": "FP"}, "HTTQ23-HAP40 [3]": {"target": "HTTQ23-HAP40 (UniProt P23610 1-371)", "assay": "FP"}, "[4]": {"target": "C-terminally biotinylated HTTQ23 in complex with HAP40 (UniProt P23610 1-371, biotin on the C-terminal Avi-tag)", "sequence (P42858 other isoform, or with tags, fused parts or gaps, chain 1 of 2, one chain of several)": "as the sequence (P42858 with tags, fused parts or gaps INS38QQ, one chain of several) above, with Y2311H, V2788I counted along it", "assay": "SPR"}, "[5]": {"target": "C-terminally biotinylated HTTQ23 (apo) (biotin on the C-terminal Avi-tag)", "sequence (P42858 other isoform, or with tags, fused parts or gaps)": "as the sequence (P42858 with tags, fused parts or gaps INS38QQ, one chain of several) above, with Y2311H, V2788I counted along it", "assay": "SPR"}, "[6]": {"target": "T2, 40-kDa huntingtin-associated protein (HAP40), chain of the HTT-HAP40 complex used for cryo-EM (UniProt P23610 1-371)", "T2 construct": "40-kDa huntingtin-associated protein (HAP40); model built from PDB 6X90; The HAP40 chain of m26, for the pairs that touch in the structures", "T2 sequence (looked up)": "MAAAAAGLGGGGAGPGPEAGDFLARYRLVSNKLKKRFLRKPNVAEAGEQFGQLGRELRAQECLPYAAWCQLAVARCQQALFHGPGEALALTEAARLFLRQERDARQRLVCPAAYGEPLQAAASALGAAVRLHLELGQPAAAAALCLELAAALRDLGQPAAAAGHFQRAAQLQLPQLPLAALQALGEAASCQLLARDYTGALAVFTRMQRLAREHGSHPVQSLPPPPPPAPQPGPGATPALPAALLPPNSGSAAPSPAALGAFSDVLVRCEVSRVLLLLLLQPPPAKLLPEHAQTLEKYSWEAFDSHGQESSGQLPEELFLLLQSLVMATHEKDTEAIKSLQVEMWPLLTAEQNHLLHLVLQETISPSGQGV", "assay": "cryo-EM structure; HTT-HAP40 macrocycle complexes at 0.2 mg/ml in 25 mM HEPES pH 7.4, 150 mM NaCl, 0.025% CHAPS on graphene grids; Complex1 (HHL1, HL2, HD4) and Complex2 (HHD3, HL2, HD4)", "settings": "both partners purified"}},
  "note": "Where a SMILES comes first, the peptide text is derived from it. Bridges are numbered along the chain shown (N, C = ends). Primed or numbered codes have the meaning given here. Where no end group is shown, it is not given here. [ ]: non-standard residue; d: D form. The star is where a group is joined. FITC″ = fluorescein isothiocyanate; ClAc = O=C(CCl)*",
  "data": [
    {"molecule": "CC[C@H](C)[C@@H]1NC(=O)[C@H](Cc2c[nH]c3ccccc23)NC(=O)[C@H](Cc2c[nH]c3ccccc23)NC(=O)[C@H](CC(N)=O)NC(=O)[C@H](CC(N)=O)NC(=O)[C@H](CCC(N)=O)NC(=O)[C@H](Cc2c[nH]c3ccccc23)NC(=O)[C@H](Cc2c[nH]cn2)NC(=O)[C@H](CCCNC(=N)N)NC(=O)[C@H]([C@@H](C)O)NC(=O)[C@@H](Cc2ccc(O)cc2)NC(=O)CSC[C@@H](C(N)=O)NC(=O)[C@H](Cc2ccccc2)NC(=O)[C@H](CCC(=O)O)NC(=O)[C@H](Cc2c[nH]cn2)NC(=O)[C@H](Cc2ccc(O)cc2)NC(=O)[C@H](CC(C)C)NC1=O", "note": "[HHD3] ({CH2CO}-[dY]TRHWQNNWWILYHEFC-NH2; thioether N-17; C-terminus assumed)", "values": [
      {"measurement": "Displacement of fluorescently labeled HHL1 by unlabeled macrocycle", "setting": "HTT-HAP40 or HTT (HL5)", "value": "displaced"},
      {"measurement": "Thermal shift (ΔTm) of HTTQ23-HAP40 induced by macrocycle", "setting": "HTTQ23-HAP40 [1]", "value": "stabilized"},
      {"measurement": "Enrichment of HAP40 in macrocycle pulldowns", "setting": "HAP40", "value": "consistently enriched"}
    ]},
    {"molecule": "CC[C@H](C)[C@@H]1NC(=O)[C@H](CC(C)C)NC(=O)[C@H](Cc2ccc(O)cc2)NC(=O)CSC[C@@H](C(N)=O)NC(=O)[C@@H]2CCCN2C(=O)[C@H](C(C)C)NC(=O)[C@H](CCC(=O)O)NC(=O)[C@H](C(C)C)NC(=O)[C@H](Cc2ccccc2)NC(=O)[C@H](C(C)C)NC(=O)[C@H](Cc2ccccc2)NC(=O)[C@H](Cc2c[nH]c3ccccc23)NC(=O)[C@H](CC(N)=O)NC(=O)[C@H](Cc2ccccc2)NC(=O)[C@H](CO)NC(=O)[C@H](CO)NC(=O)[C@H](CCCNC(=N)N)NC1=O", "note": "[HHL1] ({CH2CO}-YLIRSSFNWFVFVEVPC-NH2; thioether N-17; C-terminus assumed)", "values": [
      {"measurement": "Displacement of fluorescently labeled HHL1 by unlabeled macrocycle", "setting": "HTT-HAP40 or HTT (HL5)", "value": "displaced"},
      {"measurement": "Thermal shift (ΔTm) of HTTQ23-HAP40 induced by macrocycle", "setting": "HTTQ23-HAP40 [1]", "value": "stabilized"}
    ]},
    {"molecule": "B1", "values": [
      {"measurement": "Kd", "setting": "HTTQ54 (apo)", "value": 1.5, "unit": "nM"},
      {"measurement": "Kd", "setting": "[2]", "value": 7.3, "unit": "nM"},
      {"measurement": "Kd", "setting": "HTTQ23-HAP40 [3]", "value": 1.6, "unit": "nM"}
    ]},
    {"molecule": "B2", "values": [
      {"measurement": "Kd", "setting": "[4]", "value": 2.1, "unit": "nM"},
      {"measurement": "Kd", "setting": "[5]", "value": 4.1, "unit": "nM"}
    ]},
    {"molecule": "B3", "values": [
      {"measurement": "Kd", "setting": "[4]", "value": 7, "unit": "nM"},
      {"measurement": "binding result", "setting": "[6]", "value": "binds"}
    ]},
    {"molecule": "{CH2CO}-YTHFQVAPWIQSLC (thioether N-14 (inferred))", "note": "[HL5]", "values": [
      {"measurement": "Kd", "setting": "[5]", "value": 10, "unit": "nM"}
    ]},
    {"molecule": "B4", "values": [
      {"measurement": "binding result", "setting": "[6]", "value": "binds"}
    ]}
  ]
}
